# Data reported in publication PMC11478330, “Sandwich-Type Electrochemical Aptasensor with Supramolecular Architecture for Prostate-Specific Antigen”.
# Molecular target: prostate-specific antigen (PSA) (UniProt P07288 25-261)
# Assay: electrochemical impedance spectroscopy; Apt-ADA on CD-AuNFs/rGO/SPCE; charge transfer resistance rises with PSA; PBS (detection limit measurement); binding buffer details, pH and temperature not given in the material
# Conditions: protein: commercial; hairpin
# Chain of prostate-specific antigen (PSA) (P07288 25-261): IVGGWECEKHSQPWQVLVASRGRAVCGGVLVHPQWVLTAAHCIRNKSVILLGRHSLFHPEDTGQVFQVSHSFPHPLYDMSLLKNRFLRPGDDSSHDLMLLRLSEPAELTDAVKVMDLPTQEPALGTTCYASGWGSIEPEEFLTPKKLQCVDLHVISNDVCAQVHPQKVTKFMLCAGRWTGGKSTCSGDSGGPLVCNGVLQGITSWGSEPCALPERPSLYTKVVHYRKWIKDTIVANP
binder,measurement,value
"TTTTTAATTAAAGCTCGCCATCAAATAGCTTT (structured_DNA, 5' amino-C6 coupled to 1-adamantanecarboxylic acid) [anti-PSA aptamer-adamantane conjugate (Apt-ADA)]",binding result,binds
